Test results from patent publication US20240262917A1 (Dana-Farber, published 2024).

Key:
Irrel-hFc = target: T1, Irrel-hFc; assay: ELISA of hybridoma supernatant on a plate coated with an irrelevant hFc protein, detection with anti-mouse kappa light chain antibody; control row Co 0.062
T1 construct: also called irrelevant hFc protein
Method: (§1) HAT-selected fused cells were distributed in 96 well plates and the hybridoma supernatants were subjected to several rounds of screening. Initial screening was performed using ELISA against human Fc to test antigen binding with the ALK ECD-human Fc fusion protein. […] These were rescreened by FACS against Ba/F3 and neuroblastoma (NB) cells expressing ALK. […] (A) Binding of hybridoma supernatants using an antigen-binding capture assay. The plate was coated with goat-anti-mouse IgG Fc, incubated with hybridoma supernatants, followed by ALK-HRP and visualized using an HRP substrate. (B) Binding of selected hybridoma supernatants to a human Fc antibody using ELISA screening. Plates were coated with the ALK ECD-human Fc fusion protein (ALK-hFc) together with an irrelevant hFc protein and visualized using an anti-mouse kappa light chain antibody.

ALK-hFc = target: T2, ALK-hFc; assay: ELISA of hybridoma supernatant on a plate coated with ALK-hFc, detection with anti-mouse kappa light chain antibody; control row Co 0.067
T2 construct: also called ALK ECD-human Fc fusion protein; ALK-ECD-hFc; not shown: Human IgG2 Fc of the vector pFUse-hIgG2-FC2, and any vector-derived junction residues
Method: as §1

[1] = target: T3, Full-length human anaplastic lymphoma kinase (ALK) receptor, wild type (human, UniProt Q9UM73 19-1620); assay: western blot of NB cell lysates
T3 construct: Tested in cell lysates (western blot, IP) and on fixed cells (IF, ICC); HA- or FLAG-tagged in the co-IP dimerisation assay and FLAG-tagged and purified in the MMP-9 cleavage assay; also called WT ALK; ALK WT

[2] = target: T4, Shed ALK extracellular domain fragment (ALK 1-654) (human, UniProt Q9UM73 19-654); assay: sandwich ELISA, 7F7 capture, 8G7 detection, ALK-ECD protein as the varied antigen
T4 construct: Fragment released into conditioned media or serum by cleavage at Asn654-Leu655; also called SF; secreted extracellular fragment
Excerpt: (B) ELISA of the shed ALK ECD protein in sera from patients with neuroblastoma.

Human ALK F1174L = target: T5, Human ALK F1174L (human, UniProt Q9UM73 19-1620); assay: immunofluorescence on SHEP cells expressing ALK F1174L, 1:100 dilution
T5 construct: Expressed in SHEP neuroblastoma cells (IF) and in tumours of the ALK F1174L/MYCN transgenic mouse (IHC)

[3] = target: T6, 140 kDa truncated membrane-bound C-terminal ALK fragment (human, UniProt Q9UM73 655-1620); assay: western blot of NB cell lysates
T6 construct: also called CTF; 140 kDa fragment

ALK-LF655FY = target: T7, ALK-LF655FY; assay: immunofluorescence on NIH3T3 cells expressing the construct
T7 construct: also called NIH3T3 ALK LF655FY; MSCV-LF655FY
T7 sequence (receptor chain, as listed by the source): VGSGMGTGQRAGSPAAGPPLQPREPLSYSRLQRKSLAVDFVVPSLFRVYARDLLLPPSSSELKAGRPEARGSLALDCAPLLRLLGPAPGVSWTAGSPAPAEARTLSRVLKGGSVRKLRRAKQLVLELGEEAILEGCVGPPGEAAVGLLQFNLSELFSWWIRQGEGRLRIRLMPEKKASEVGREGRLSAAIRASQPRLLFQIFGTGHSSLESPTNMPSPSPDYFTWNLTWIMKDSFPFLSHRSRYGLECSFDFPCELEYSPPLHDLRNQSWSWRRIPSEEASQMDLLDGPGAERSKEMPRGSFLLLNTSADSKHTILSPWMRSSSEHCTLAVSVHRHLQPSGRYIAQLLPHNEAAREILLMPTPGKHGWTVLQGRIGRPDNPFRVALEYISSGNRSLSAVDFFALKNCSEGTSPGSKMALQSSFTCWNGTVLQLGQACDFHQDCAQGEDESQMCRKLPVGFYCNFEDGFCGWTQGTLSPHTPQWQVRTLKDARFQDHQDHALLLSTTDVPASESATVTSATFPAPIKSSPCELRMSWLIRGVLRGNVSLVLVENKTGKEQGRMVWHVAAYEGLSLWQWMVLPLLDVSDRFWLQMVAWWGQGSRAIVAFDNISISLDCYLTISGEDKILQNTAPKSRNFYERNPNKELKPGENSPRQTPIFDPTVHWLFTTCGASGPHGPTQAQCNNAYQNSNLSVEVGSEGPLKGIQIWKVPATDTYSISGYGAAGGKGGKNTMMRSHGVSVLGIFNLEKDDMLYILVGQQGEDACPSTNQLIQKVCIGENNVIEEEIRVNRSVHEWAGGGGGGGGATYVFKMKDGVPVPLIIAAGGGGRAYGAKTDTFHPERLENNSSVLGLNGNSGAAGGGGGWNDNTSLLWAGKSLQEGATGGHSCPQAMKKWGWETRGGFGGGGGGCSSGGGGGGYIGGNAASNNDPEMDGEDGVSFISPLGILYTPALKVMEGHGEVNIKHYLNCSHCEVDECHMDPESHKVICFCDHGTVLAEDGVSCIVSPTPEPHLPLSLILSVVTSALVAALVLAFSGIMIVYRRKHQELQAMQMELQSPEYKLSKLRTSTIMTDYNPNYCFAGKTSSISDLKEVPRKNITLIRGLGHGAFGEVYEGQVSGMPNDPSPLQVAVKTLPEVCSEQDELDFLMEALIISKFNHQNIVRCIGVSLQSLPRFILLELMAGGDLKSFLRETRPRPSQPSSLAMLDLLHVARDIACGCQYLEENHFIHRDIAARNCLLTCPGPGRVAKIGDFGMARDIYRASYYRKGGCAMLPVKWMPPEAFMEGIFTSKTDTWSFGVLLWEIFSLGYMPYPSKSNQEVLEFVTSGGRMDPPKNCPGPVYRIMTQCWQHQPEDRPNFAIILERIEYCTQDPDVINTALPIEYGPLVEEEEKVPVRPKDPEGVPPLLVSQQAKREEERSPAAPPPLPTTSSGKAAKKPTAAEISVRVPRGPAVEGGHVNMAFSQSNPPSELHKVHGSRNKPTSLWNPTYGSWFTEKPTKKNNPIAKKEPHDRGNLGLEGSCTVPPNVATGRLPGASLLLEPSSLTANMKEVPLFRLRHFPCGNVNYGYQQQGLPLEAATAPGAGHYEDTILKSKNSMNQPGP
Method: A 1:100 antibody dilution was used.
Cells (0.5×10⁶ per well) were seeded into six-well plates and grown on glass coverslips for 24 hr. before fixation in 4% paraformaldehyde in PBS for 15 min at room temperature (RT), washed with PBS, permeabilized in 0.1% Triton X-100, and blocked with PBS containing 0.05% Tween-20 and 5% BSA for 1 hr. to block nonspecific binding. […] Images were collected on a Zeiss AXIO Imager Z1 fluorescence microscope. […] After 24 hours, cells were washed once in PBS, fixed in 4% paraformaldehyde in PBS, washed, permeabilized in 0.1% Triton X-100, and blocked in PBS containing 10% horse serum. […] The next day, cells were washed, incubated in goat anti-rabbit IgG secondary antibody (1:1000) for 1 hr. washed, and incubated in Streptavidin-TexasRed (1:1000) for 1 hr. Cover slips were mounted onto slides using mounting medium containing DAPI. Images were collected on a Zeiss AXIO Imager Z1 fluorescence microscope.

T2 sequence (chain, as listed by the source limits assumed): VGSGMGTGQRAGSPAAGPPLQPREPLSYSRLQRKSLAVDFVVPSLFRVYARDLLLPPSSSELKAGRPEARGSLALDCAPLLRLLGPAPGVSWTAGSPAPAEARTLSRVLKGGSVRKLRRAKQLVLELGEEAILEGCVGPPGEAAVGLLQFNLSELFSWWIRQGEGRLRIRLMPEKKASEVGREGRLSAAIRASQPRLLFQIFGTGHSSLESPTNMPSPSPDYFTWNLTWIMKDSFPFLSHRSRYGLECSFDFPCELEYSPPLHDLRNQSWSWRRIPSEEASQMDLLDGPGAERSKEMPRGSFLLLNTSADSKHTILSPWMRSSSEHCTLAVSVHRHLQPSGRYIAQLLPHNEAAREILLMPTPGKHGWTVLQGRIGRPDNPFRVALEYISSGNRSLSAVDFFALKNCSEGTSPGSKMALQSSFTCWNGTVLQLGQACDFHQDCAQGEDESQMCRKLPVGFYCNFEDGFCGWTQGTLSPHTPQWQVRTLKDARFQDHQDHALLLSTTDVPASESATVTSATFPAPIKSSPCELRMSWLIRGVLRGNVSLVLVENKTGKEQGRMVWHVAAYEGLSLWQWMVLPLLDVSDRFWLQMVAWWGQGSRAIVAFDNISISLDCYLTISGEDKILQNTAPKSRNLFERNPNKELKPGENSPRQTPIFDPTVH
T3 sequence (Q9UM73 19-1620 limits assumed): as the sequence (receptor chain, as listed by the source) above, with F637L, Y638F counted along it
T6 sequence (Q9UM73 655-1620): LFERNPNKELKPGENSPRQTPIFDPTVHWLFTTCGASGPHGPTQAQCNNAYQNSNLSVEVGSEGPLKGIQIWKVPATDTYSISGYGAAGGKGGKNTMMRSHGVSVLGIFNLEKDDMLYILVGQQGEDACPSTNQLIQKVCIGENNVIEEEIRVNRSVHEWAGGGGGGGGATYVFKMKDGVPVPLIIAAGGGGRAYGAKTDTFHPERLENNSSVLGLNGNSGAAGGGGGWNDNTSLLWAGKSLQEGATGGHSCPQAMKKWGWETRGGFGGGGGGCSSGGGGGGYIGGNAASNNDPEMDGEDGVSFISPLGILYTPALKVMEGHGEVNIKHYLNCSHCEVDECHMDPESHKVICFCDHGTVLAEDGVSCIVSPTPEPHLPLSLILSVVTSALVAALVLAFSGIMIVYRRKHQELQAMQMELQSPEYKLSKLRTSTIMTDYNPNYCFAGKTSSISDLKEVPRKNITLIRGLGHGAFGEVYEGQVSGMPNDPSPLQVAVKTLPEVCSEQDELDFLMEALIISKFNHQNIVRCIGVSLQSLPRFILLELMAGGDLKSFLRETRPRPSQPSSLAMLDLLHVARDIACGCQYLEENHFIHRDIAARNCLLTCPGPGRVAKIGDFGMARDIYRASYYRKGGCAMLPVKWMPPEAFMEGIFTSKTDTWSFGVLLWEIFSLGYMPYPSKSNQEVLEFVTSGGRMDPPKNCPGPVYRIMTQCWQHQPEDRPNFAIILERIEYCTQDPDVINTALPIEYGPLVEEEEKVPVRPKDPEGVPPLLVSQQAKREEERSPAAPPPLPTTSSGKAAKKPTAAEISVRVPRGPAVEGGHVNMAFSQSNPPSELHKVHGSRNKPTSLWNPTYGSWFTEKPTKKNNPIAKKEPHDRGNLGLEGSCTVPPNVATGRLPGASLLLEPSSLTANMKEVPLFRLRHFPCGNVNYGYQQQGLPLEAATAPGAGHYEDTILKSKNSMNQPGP
T5 sequence (Q9UM73 19-1620 F1174L limits assumed): as the sequence (receptor chain, as listed by the source) above, with F637L, Y638F, F1156L counted along it
T4 sequence (Q9UM73 19-654): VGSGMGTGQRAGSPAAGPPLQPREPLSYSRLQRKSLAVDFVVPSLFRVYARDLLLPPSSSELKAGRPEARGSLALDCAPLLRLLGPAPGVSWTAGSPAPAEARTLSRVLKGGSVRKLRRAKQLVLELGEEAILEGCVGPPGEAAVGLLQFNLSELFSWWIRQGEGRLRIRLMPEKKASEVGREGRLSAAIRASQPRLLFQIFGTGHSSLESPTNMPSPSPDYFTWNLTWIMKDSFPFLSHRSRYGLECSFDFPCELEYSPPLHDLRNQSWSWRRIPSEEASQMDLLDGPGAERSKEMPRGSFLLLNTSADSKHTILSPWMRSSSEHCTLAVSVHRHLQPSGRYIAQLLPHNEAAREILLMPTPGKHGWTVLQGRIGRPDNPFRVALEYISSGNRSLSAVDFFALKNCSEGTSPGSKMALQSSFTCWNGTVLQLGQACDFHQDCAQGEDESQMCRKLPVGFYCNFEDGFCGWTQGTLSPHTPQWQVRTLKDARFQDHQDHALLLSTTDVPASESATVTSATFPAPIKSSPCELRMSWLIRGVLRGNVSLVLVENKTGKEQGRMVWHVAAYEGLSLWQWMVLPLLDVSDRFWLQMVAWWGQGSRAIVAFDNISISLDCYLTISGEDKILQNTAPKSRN

ELISA reading (name not given) (Irrel-hFc) | ELISA reading (name not given) (ALK-hFc) | binding result [1] | binding result [2] | binding result (Human ALK F1174L) | binding result [3] | binding result (ALK-LF655FY) | Binder
0.063 | 0.872 | binds | binds | binds |  |  | Monoclonal anti-ALK antibody 7F7 (antibody, IgG1, V domains shown, also called Ab 7F7) VH: QVQLQQSGAELVRPGASVTLSCKASGYTFTDYEIHWMKQTPVHGLEWIGTIDPETGGTAYNQKFKGKAILTADKSSSTAYMELRSLTSEDSAVYYCTRCYYGSSWYFDVWGTGTTVTVSS VL: DIQMTQTTSSLSASLGDRVTISCSASQGISNYLNWYQQKPDGTVKLLIYYTSSLHSGVPSRFSGSGSGTDYSLTISNLELEDIATYYCQQYSKVPRTFGGGTKLEIKR
0.064 | 1.01 |  |  |  |  |  | Monoclonal anti-ALK antibody 5H3 (antibody, IgG1, V domains shown, The variable part as printed looks identical to that of 8G7; also called Ab 5H3) VH: QVQLQQSGAELVRPGASVTLSCKASGYTFTDYEMHWVKQTPVHGLEWIGAIDPETGGSAYNQKFKAKAILTADRSSSTAYMELRSLTSEDSAVYYCTRTRYYGSSPAMDYWGQGTSVTVSS VL: DIQMTQTTSSLSASLGDRVTISCSASQGIGNYLNWYQQKPDGTVKLLIYYTSSLHSGVPSRFSGSGSGTDYSLTISNLEPEDIATYYCQQYSKLPYTFGGGTKLEIKR
0.064 | 0.56 |  |  |  | no binding | binds | Mouse monoclonal anti-ALK 8G7 (antibody, IgG1, V domains shown, constant regions are not; also called Ab 8G7; 8G7 N-terminal anti-ALK antibody) VH: QVQLQQSGAELVRPGASVTLSCKASGYTFTDYEMHWVKQTPVHGLEWIGAIDPETGGSAYNQKFKAKAILTADRSSSTAYMELRSLTSEDSAVYYCTRTRYYGSSPAMDYWGQGTSVTVSS VL: DIQMTQTTSSLSASLGDRVTISCSASQGIGNYLNWYQQKPDGTVKLLIYYTSSLHSGVPSRFSGSGSGTDYSLTISNLEPEDIATYYCQQYSKLPYTFGGGTKLEIK
